Assay [1] addresses T1, cSIRPαV1D1 with histidine tag (cynomolgus monkey (Macaca fascicularis), UniProt Q5TFQ8 30-146 (human entry)).
T1 construct: also called cynomolgus monkey SIRPαV1D1; not shown: histidine tag
T1 chain: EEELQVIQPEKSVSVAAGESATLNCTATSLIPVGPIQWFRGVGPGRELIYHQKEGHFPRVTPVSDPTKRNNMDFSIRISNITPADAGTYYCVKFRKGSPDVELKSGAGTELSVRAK
The assay can be described thus: SPR (Biacore 3000), IgG captured on anti-human IgG, His-tagged D1 analyte. The source says: (§1) Goat anti-human IgG capture antibody (Jackson Laboratories; 109-005-098) was immobilized on the four flow cells in each sensor chip using standard amine coupling chemistry. About 8000 resonance units (RU) of this antibody was immobilized on each flow cell. Flow cells 2, 3, and 4 were used to analyze captured anti-SIRPα antibodies (about 250 to 300 RU were captured on each of flow cells 2, 3, and 4), while flow cell 1 was used as the reference flow cell. The analytes tested were hSIRPαV1D1, hSIRPαV2D1, cynomolgus monkey SIRPαV1D1 (cSIRPαV1D1), cSIRPαV2D1, hSIRPβ1D1, and hSIRPγD1, each of which also included a histidine tag. The sequences of cSIRPαV1D1 and cSIRPαV2D2 are provided in SEQ ID NOs: 143 and 142, respectively. To avoid confusion, the differences between the amino acid sequences of cSIRPαV1D1 and cSIRPαV2D1 are not the same as the differences between the amino acid sequences of hSIRPαV1D1 and hSIRPαV2D1. […] The amino acid sequence of hSIRPβ1D1 can be found in amino acids 30-148 of SEQ ID NO: 144, and the amino acid sequence of hSIRPγD1 can be found in amino acids 31-149 of SEQ ID NO: 141.
(§2) Generally, concentrations from about 0.1×KD to about 10×KD are appropriate for kinetic analysis. From one to six different concentrations were evaluated for each antibody:analyte interaction, depending on the comparisons to be made in an individual experiment. All analyte dilutions were prepared in HPS-EP buffer. Multiple blank (running buffer) injections were run and used to assess and subtract system artifacts. The association phase and dissociation phase for all analyte concentrations were monitored for 180 seconds and 300 seconds, respectively, at a flow rate of 50 μL/min. Between antibody samples, the surfaces of the flow cells were regenerated with 10 mM glycine, pH 1.5 using two injections, each lasting 12 seconds at a flow rate of 50 μL/min.
(§3) The data were analyzed using BIAevaluation software (Biacore, General Electric (GE)). The data was fit using the 1:1 Langmuir model.
(In general: SPR reads the build-up and loss of mass on a sensor chip optically.)

The target of assay [2] is T2, hSIRPγD1 with histidine tag (human, UniProt Q9P1W8 31-149).
T2 construct: also called first immunoglobulin-like domain of human SIRP Gamma; not shown: histidine tag
The description is as above.
Description: as §1, §2, §3

In assay [3] the target is T3, cSIRPαV2D1 with histidine tag (cynomolgus monkey (Macaca fascicularis), UniProt Q5TFQ8 30-146 (human entry)).
T3 construct: also called cynomolgus monkey SIRPαV2D1; not shown: histidine tag
T3 chain: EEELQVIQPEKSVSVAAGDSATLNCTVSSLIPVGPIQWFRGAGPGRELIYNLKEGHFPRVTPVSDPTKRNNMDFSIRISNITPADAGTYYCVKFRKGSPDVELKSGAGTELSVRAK
The description is as above.
Description: as §1, §2, §3

The target in assay [4] is T4, hSIRPαV2D1 with histidine tag (human).
T4 construct: analyte of the Biacore experiments; also called first immunoglobulin-like domain of human SIRPα variant V2; not shown: histidine tag
The assay is described as above.
Description: as §1, §2, §3

The target of assay [5] is T5, hSIRPβ1D1 with histidine tag (human, UniProt O00241 30-148).
T5 construct: analyte of the Biacore experiments; also called hSIRPβD1; not shown: histidine tag
The description is as above.
Description: as §1, §2, §3

Assay [6] concerns the target T6, hSIRPαV1D1 with histidine tag (human, UniProt P78324 31-147).
T6 construct: analyte of the Biacore experiments; also called first immunoglobulin-like domain of human SIRPα variant V1; not shown: histidine tag
The assay is described as above.
Description: as §1, §2, §3

Assay [7] has as its target T7, hSIRPαV2 expressed on the cell surface (human, UniProt P78324 31-504).
T7 construct: whole, on cells; also called human SIRPα variant V2
The assay can be described thus: FACS competition on EXPI293 cells stably expressing hSIRPαV2: biotinylated hCD47:Fc (2.5 µg/ml) mixed with serial dilutions of the antibody, bound hCD47:Fc detected with streptavidin-PE (MFI); blocked ligand: hCD47:Fc. The protocol: The x axes show the antibody concentration in μg/ml. The y axes show mean fluorescence intensity (MFI) at about 572 nm (due to binding of biotinylated CD47:Fc, detected by a streptavidin-phycoerythrin conjugate).
Some of the anti-SIRPα antibodies described above were tested in vitro for their ability to inhibit binding of CD47 to hSIRPαV1 or hSIRPαV2 expressed on the surface of EXPI293™ cells stably transfected with DNA encoding these proteins. Briefly, stable transfectants expressing hSIRPαV1 or hSIRPαV2 were seeded into 96-well microtiter plates. […] After 30 minutes incubation, cells were washed, streptavidin-phycoerythrin (streptavidin-PE) was added, and cells were subjected to FACS to detect bound hCD47:Fc. Results were reported as a mean fluorescence intensity (MFI) using FlowJo software (FLOWJO, L.L.C., Ashland, Oreg., USA). FIGS. 4 and 5 show the MFI detected on the y axes of both panels and the antibody concentration on the x axes of both panels.

T4 sequence (chain, as listed by the source limits assumed): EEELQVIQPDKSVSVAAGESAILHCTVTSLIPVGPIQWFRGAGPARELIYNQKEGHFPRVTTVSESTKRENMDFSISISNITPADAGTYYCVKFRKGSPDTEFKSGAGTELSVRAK
T6 sequence (P78324 31-147 limits assumed): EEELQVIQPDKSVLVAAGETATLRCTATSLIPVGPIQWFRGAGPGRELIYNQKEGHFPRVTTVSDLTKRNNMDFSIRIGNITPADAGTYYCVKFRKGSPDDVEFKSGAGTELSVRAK
T2 sequence (Q9P1W8 31-149): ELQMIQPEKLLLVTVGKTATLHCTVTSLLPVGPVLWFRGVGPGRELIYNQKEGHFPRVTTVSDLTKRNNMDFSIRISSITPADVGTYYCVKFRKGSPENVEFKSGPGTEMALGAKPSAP
T5 sequence (O00241 30-148): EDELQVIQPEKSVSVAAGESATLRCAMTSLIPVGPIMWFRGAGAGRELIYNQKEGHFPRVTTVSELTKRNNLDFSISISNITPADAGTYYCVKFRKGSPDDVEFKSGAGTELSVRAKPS
T7 sequence (P78324 other isoform, or with tags, fused parts or gaps limits assumed): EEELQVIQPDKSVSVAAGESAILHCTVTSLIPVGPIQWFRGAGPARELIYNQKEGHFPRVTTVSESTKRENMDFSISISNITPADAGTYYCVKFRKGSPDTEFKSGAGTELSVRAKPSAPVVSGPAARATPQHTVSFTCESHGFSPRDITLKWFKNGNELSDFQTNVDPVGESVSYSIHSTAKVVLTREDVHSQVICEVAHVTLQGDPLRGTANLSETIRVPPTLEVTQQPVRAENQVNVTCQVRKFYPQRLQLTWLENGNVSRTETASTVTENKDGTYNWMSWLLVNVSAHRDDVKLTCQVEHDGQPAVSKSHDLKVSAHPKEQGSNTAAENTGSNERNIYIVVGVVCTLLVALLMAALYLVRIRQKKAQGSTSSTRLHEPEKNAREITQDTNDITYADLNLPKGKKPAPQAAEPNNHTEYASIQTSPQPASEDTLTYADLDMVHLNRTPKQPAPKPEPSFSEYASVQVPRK

B1: Ab2_G4 (antibody, human IgG4 S228P, kappa, V domains shown)
VH: EVQLVESGGGLVKPGGSLRLSCAASGFTFSSYVMSWVRQTPGKGLEWVATISSGGTYTYYPDSVKGRFTLSRDNAKNSLYLQMNSLRAEDTAVYYCASSVDGSAFDYWGQGTTVTVSS
VL: DIVITQSPASLAVSLGERATISCRASESVDSYGMSFMHWYQQKPGQPPKLLIYRASNLESGVPDRFSGSGSRTDFTLTINPLQAEDVATYYCHQSSENLPWTFGGGTKVEIKR
notes: human IgG4 format
The Kd is a measure of binding affinity in units of concentration. Consider B1, for which the dissociation constant (Kd) in assay [1] was 0.145 µM; in assay [2], around 0.944 µM; in assay [3] it was around 0.709 µM; in assay [4] it was 0.00306 µM; in assay [5], 0.0536 µM; in assay [6], 0.226 µM.

B2: Ab1_G2 (antibody, human IgG2, V domains shown)
VH: EVQLVESGGGLVKPGGSLRLSCAASGFTFSSYVMSWVRQTPGKGLEWVATISSGGTYTYYPSSVKGRFTLSRDNAKNSLYLQMNSLRAEDTAVYYCASSLTGSSFDYWGQGTTVTVSS
VL: DIVLTQSPASLAVSLGERATISCRASESVDLYGTSFMHWYQQKPGQPPKLLIYRASNLESGVPDRFSGSGSRTDFTLTINPLQAEDVATYYCHQSSDELPWTFGGGTKVEIKR
As to B2, the dissociation constant Kd in assay [1] turned out to be 0.0269 µM; in assay [2], 0.168 µM; in assay [3], 0.287 µM; in assay [4], 0.00251 µM; in assay [5] it was 0.00139 µM; in assay [6], 0.0507 µM.

B3: Ab11_G2 (antibody, human IgG2, V domains shown)
VH: EVQLVESGGGLVKPGGSLRLSCAASGFTFSSYVMSWVRQTPGKGLEWVATISSGGTYTYYPDSVKGRFTLSRDNAKNSLYLQMNSLRAEDTAVYYCASQLTGSEFDYWGQGTTVTVSS
VL: DIVITQSPASLAVSLGERATISCRASESVDSYGNSFMHWYQQKPGQPPKLLIYRASNLESGVPDRFSGSGSRTDFTLTINPLQAEDVATYYCHQSGDLPWTFGGGTKVEIKR
notes: same antibody as Ab11_G4 except human IgG2 CH1, hinge, CH2 and CH3
With B3, the Kd in assay [1] is 0.098 µM; in assay [2], around 3.06 µM; in assay [3] it was around 0.475 µM; in assay [4] it was 0.00192 µM; in assay [5] it was 0.00858 µM; in assay [6], 0.125 µM.

B4: Ab9_G2 (antibody, human IgG2, V domains shown)
VH: EVQLVESGGGLVKPGGSLRLSCAASGFTFSSYVMSWVRQTPGKGLEWVATISSGGTYTYYPNSVKGRFTLSRDNAKNSLYLQMNSLRAEDTAVYYCVSSMTGSSFDYWGQGTTVTVSS
VL: DIVITQSPASLAVSLGERATISCRASESVDSYGNSFMHWYQQKPGQPPKLLIYRASNLESGVPDRFSGSGSRTDFTLTINPLQAEDVATYYCHQSSEQLPWTFGGGTKVEIKR
notes: same antibody as Ab9_G4 except human IgG2 CH1, hinge, CH2 and CH3
Take B4: the Kd in assay [1] is 0.155 µM; in assay [2], around 0.457 µM; in assay [3], around 0.426 µM; in assay [4], 0.00211 µM; in assay [5], 0.00663 µM; in assay [6] it was 0.075 µM.

B5: Ab9_G4 (antibody, human IgG4 S228P, kappa, V domains shown)
VH: EVQLVESGGGLVKPGGSLRLSCAASGFTFSSYVMSWVRQTPGKGLEWVATISSGGTYTYYPNSVKGRFTLSRDNAKNSLYLQMNSLRAEDTAVYYCVSSMTGSSFDYWGQGTTVTVSS
VL: DIVITQSPASLAVSLGERATISCRASESVDSYGNSFMHWYQQKPGQPPKLLIYRASNLESGVPDRFSGSGSRTDFTLTINPLQAEDVATYYCHQSSEQLPWTFGGGTKVEIKR
notes: human IgG4 format
On to B5, for which the “IC50 (read off the curve)” value in assay [7] was around 0.4 mg/L. For the same molecule, the dissociation constant (Kd) in assay [1] is 0.183 µM; in assay [2], around 0.616 µM; in assay [3], around 0.432 µM; in assay [4], 0.00297 µM; in assay [5] it was 0.00643 µM; in assay [6] it was 0.102 µM.

B6: Ab4_G4 (antibody, human IgG4 S228P, kappa)
heavy: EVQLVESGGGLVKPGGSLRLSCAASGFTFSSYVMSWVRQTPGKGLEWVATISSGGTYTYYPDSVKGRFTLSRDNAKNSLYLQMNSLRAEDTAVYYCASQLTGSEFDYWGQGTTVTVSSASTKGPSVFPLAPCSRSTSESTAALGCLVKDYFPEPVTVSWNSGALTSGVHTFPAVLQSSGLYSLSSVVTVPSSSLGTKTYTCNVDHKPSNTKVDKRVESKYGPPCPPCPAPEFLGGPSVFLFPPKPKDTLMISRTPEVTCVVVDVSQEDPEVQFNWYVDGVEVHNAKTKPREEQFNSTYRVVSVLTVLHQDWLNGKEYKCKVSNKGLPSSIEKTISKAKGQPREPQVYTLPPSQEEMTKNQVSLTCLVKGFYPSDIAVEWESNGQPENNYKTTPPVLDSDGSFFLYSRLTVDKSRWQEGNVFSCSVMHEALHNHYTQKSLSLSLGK
light: DIVITQSPASLAVSLGERATISCRASESVDSYGNSFMHWYQQKPGQPPKLLIYRASNLESGVPDRFSGSGSRTDFTLTINPLQAEDVATYYCHQSADLPWTFGGGTKVEIKRTVAAPSVFIFPPSDEQLKSGTASVVCLLNNFYPREAKVQWKVDNALQSGNSQESVTEQDSKDSTYSLSSTLTLSKADYEKHKVYACEVTHQGLSSPVTKSFNRGEC
notes: human IgG4 format
On to B6, for which the Kd is 0.165 µM in assay [1]; around 4.56 µM in assay [2]; around 0.714 µM in assay [3]; 0.00404 µM in assay [4]; 0.0243 µM in assay [5]; 0.307 µM in assay [6].

B7: Ab12_G4 (antibody, human IgG4 S228P, kappa)
heavy: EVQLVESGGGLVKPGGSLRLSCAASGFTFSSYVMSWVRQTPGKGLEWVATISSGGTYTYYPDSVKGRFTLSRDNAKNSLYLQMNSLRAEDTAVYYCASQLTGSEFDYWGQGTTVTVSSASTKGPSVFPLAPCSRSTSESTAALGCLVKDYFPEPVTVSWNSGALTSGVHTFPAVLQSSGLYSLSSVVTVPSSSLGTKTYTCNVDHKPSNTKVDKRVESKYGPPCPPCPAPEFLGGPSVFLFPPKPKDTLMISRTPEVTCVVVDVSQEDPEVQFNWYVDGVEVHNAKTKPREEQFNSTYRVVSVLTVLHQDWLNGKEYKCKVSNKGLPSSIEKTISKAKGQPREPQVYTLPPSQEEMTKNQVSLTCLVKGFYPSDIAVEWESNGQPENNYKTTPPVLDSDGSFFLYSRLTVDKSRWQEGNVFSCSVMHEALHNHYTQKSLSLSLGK
light: DIVLTQSPASLAVSLGERATISCRASESVDSYGNSFMHWYQQKPGQPPKLLIYRASNLESGVPDRFSGSGSRTDFTLTINPLQAEDVATYYCHQSADLPWTFGGGTKVEIKRTVAAPSVFIFPPSDEQLKSGTASVVCLLNNFYPREAKVQWKVDNALQSGNSQESVTEQDSKDSTYSLSSTLTLSKADYEKHKVYACEVTHQGLSSPVTKSFNRGEC
notes: human IgG4 format
Turning to B7, the Kd in assay [1] was 0.197 µM; in assay [2] it was around 5.02 µM; in assay [3], around 0.727 µM; in assay [4] it was 0.0046 µM; in assay [5], 0.029 µM; in assay [6], 0.348 µM.

B8: Ab8_G4 (antibody, human IgG4 S228P, kappa, V domains shown)
VH: EVQLVESGGGLVKPGGSLRLSCAASGFTFSSYVMSWVRQTPGKGLEWVATISSGGTYTYYPESVKGRFTLSRDNAKNSLYLQMNSLRAEDTAVYYCASQLTGSEFDYWGQGTTVTVSS
VL: DIVMTQSPASLAVSLGERATISCRASESVDSYGNSFMHWYQQKPGQPPKLLIYRASNLESGVPDRFSGSGSRTDFTLTINPLQAEDVATYYCHQSADLPWTFGGGTKVEIKR
notes: human IgG4 format
As to B8, the dissociation constant Kd in assay [1] was 0.256 µM; in assay [2] it was around 6.2 µM; in assay [3], around 1.05 µM; in assay [4], 0.00602 µM; in assay [5], 0.0443 µM; in assay [6] it was 0.411 µM.

Values taken from US20220235144A1 (QILU PUGET SOUND BIOTHERAPEUTICS, published 2022).
